Entries after “also recorded” stand apart in the source; their conditions may differ. Where two headings read alike, the source gives them in different places. No end group written: not given here.
B4: DMC1 ΔN (amino-acids 83-340), purified (domain or fragment, human, UniProt Q14565 83-340, looked up)
chain: PGFLTAFEYSEKRKMVFHITTGSQEFDKLLGGGIESMAITEAFGEFRTGKTQLSHTLCVTAQLPGAGGYPGGKIIFIDTENTFRPDRLRDIADRFNVDHDAVLDNVLYARAYTSEHQMELLDYVAAKFHEEAGIFKLLIIDSIMALFRVDFSGRGELAERQQKLAQMLSRLQKISEEYNVAVFVTNQMTADPGATMTFQADPKKPIGGHILAHASTTRISLRKGRGELRIAKIYDSPEMPENEATFAITAGGIGDAKE
modifications: amine reactive fluorescent dye (Monolith Protein Labelling Kit BLUE-NHS) in the MST only
notes: human DMC1 with its N-terminal domain deleted, amino acids 83-340; Octameric ring in the crystal and in solution; also called DMC1 core; structural core of human DMC1; source: E. coli BL21 (DE3), purified (Ni-NTA, HiTrap Q, TEV cleavage, HiTrap Q, SEC)

Assays:
[1] = molecular target: B4; experiment: MST; DMC1 ΔN or loop mutant labelled with BLUE-NHS dye, constant at 150 nM; peptide titrated in 1:1 dilutions starting from 750 µM; 10 mM HEPES pH 8.0, 150 mM NaCl, 0.05 % Tween-20; room temperature (~22 °C); affinities derived from initial fluorescence
DMC1-ssDNA filaments [2] = experiment: EMSA, super-shift of DMC1-ssDNA filaments (TEA pH 7.5 + KCl); format: biochemical, human; details: 100-nt random ssDNA, 4 °C
Source text: (§1) What is the function of the BRCA2 Ex14-DMC1 interaction? We used electrophoretic mobility shift assays (EMSAs) to determine the impact of BRCA2-binding on DMC1 nucleoprotein filaments. We used two different conditions for nucleoprotein filament assembly. Firstly, a TAE (tris, acetate, EDTA; pH 7.5) buffer that was previously used for RAD51-ssDNA filaments, in which DMC1-ssDNA filaments were partially formed at the canonical ratio of three nucleotides to one protomer (Fig. 3a). Secondly, a TEA (triethanolamine; pH 7.5) + KCl buffer based on previous DMC1 studies[36]–[38], in which DMC1-ssDNA filament formation was more complete at the canonical ratio (Fig. 3b). […] This was noticeable using Ex14 in equimolar amounts (11 μM), and became substantial at a 5-fold stoichiometric excess (55 μM) (Fig. 3b). As the KD of the DMC1-Ex14 interaction is approximately 30 μM (Fig. 2a), the requirement for a stoichiometric excess is likely due to binding being favoured at Ex14 concentrations above the KD.
(§2) To form nucleoprotein filaments, DMC1 and RAD51 was incubated with fluorescent 100-base ssDNA (5’-FAM- […]-3’) at the concentrations indicated in the figures for 30 minutes at 4 °C in reaction buffer. For DMC1, reaction buffer is 25 mM TEA (triethanolamine) pH 7.5, 1 mM ATP, 2 mM MgCl2, 0.1 mg/ml BSA, 2 mM DTT, 200 mM KCl. For RAD51, reaction buffer is 50 mM TEA (triethanolamine), 2 mM ATP, 0.5 mM MgCl2, 2 mM DTT. For assays requiring incomplete nucleoprotein filament assembly, the reaction buffer consisted of 50 mM TAE (tris, acetate, EDTA) pH 7.5, 2 mM ATP, 2 mM MgCl2, 2 mM DTT. In nucleoprotein formation stimulation assays or supershift experiments, BRCA2Ex14 or BRCA2Ex14-AAA were added for a further 30 min at 4 °C. […] Glycerol was added at a final concentration of 3%, and samples were analysed by electrophoresis on a 1% (w/v) (for DMC1) or 0.66% (w/v) (for RAD51) agarose gel in 0.5x TAE pH 8.0 at 20–40 V for ~4 h at 4 °C. DNA was detected by FAM using a Typhoon^TM FLA 9500 (GE Healthcare), with 473 nm laser at excitation wavelength 490 nm and emission wavelength 520 nm, using the LPB filter and a PMT voltage of 500 V. To analyse RAD51 nucleoprotein filaments assembled upon 100-base poly(dT) ssDNA, gels were stained post-run using SYBR^TM Gold Nucleic Acid Gel Stain (Invitrogen) and detected using a Typhoon^TM FLA 9500 (GE Healthcare).

DMC1 ΔN [3] = molecular target: T1, DMC1 ΔN (Homo sapiens, UniProt Q14565); experiment: Amylose pull-down of DMC1 ΔN with MBP-BRCA2 fusions; format: binding; details: recombinant co-expression with MBP-BRCA2 fusion
T1 construct: DMC1 ΔN (83-340) were cloned into pHAT4; His6 (TEV-cleavable) (N, cleaved yes); made in house; host or cells: E. coli BL21 (DE3)
T1 sequence (Q14565 83-340): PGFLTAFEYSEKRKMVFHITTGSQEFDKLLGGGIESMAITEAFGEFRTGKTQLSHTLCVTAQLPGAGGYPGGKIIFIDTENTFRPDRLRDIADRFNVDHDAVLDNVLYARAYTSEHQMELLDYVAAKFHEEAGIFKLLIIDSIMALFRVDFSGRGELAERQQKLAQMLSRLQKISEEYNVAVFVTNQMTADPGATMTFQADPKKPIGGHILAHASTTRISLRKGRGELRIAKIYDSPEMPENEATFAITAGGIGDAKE
Source text: For affinity pulldown experiments, MBP-fusions of BRCA2 fragments (Ex14, amino-acids 2387-2420, Ex14-Tr, amino acids 2401-2414, Ex27, amino acids 3270-3315, BRC4, amino acids 1519-1551) were cloned into pMAT11 vectors[54] and co-expressed with DMC1 ΔN, DMC1 ΔN loop mutant (in which DMC1 amino acids 147-GAGGYPG-153 and 178-NVDHDA-183 were replaced by the cognate sequences of RAD51 148-IDRGGGE-154 and 179-GLSGSD-184), RAD51 ΔN, RAD51 ΔN loop mutant (the reverse switch of DMC1 ΔN loop mutant), and RAD51. MBP-fusions and complexes were purified through amylose affinity chromatography.

DMC1-ssDNA filaments [4] = experiment: EMSA, stimulation of DMC1-ssDNA filament formation (TAE pH 7.5); format: biochemical, human
Source text: as §1, §2

DMC1 ΔN [5] = molecular target: T1, DMC1 ΔN; experiment: Microscale thermophoresis (MST), BRCA2 peptides and DMC1 ΔN; format: binding; details: labelled DMC1 ΔN 150 nM
Experimental: DMC1 ΔN and DMC1 ΔN loop mutant were labelled in 10 mM HEPES pH 8.0, 150 mM NaCl with an amine reactive fluorescent dye (MonolithTM Protein Labelling Kit BLUE-NHS, Nanotemper GmbH). A serial dilution of titrant (peptide) was prepared in 10 mM HEPES pH 8.0, 150 mM NaCl, 0.05 % Tween-20. The concentration of labelled DMC1 ΔN or DMC1 ΔN loop mutant were constant at 150 nM and the concentration of the interacting peptide was titrated in 1:1 dilutions starting from 750 µM. An equal volume (10 µl) of the serial dilution and of the diluted labelled DMC1 were mixed and loaded in glass capillaries (MonolithTM NT.115 MST Premium Coated Capillaries, Nanotemper GmbH). The initial fluorescence and the thermophoretic mobility were measured on a Monolith NT.115 system (NanoTemper Technologies). The excitation power was 45 % and MST power was 60 % at room temperature (~22 °C). Laser on and off times were set at 5 and 30 seconds, respectively. Data analysis was performed with NT Affinity Analysis software.
As a change in initial fluorescence was detected, SDS denaturation (SD) tests were performed according to the manufacturer’s instructions to determine whether these changes were ligand-induced and whether the data could therefore be used to derive affinity measurements. Briefly, 7 µl of the samples containing the three highest and three lowest concentrations of peptide were mixed with 7 µl of denaturation buffer (4 % SDS, 40 mM DTT). After incubating each for 5 minutes at 95 °C to denature the proteins and subject to brief centrifugation, the samples were loaded onto Premium Coated Capillaries and their initial fluorescence measurements recorded. […] Initial fluorescence readings were used to derive binding affinities.

[6] = system: RAD51-ssDNA (polydT) filaments; experiment: EMSA, protection of RAD51-ssDNA (polydT) filaments from BRC4-mediated disruption; format: biochemical; details: 100-nt polydT; 10-fold excess of Ex27
Experimental: as §2

[7] = system: DMC1 V179E-ssDNA filaments; experiment: EMSA, super-shift of filaments formed using DMC1 V179E; format: biochemical, human
Experimental: as §2

DMC1-ssDNA filaments [8] = experiment: EMSA, protection of DMC1-ssDNA filaments from BRC4-mediated disruption; format: biochemical, human; details: TEA pH 7.5 + KCl; Ex14 10-fold stoichiometric excess (110 μM); 10-fold excess of BRC4
Experimental: Finally, we tested whether binding of BRCA2 Ex14 protects DMC1-ssDNA nucleoprotein filaments from BRC4-mediated disruption (Fig. 3c). […] Further, whilst the core PhePP interaction site is sufficient to stimulate DMC1-ssDNA nucleoprotein filament formation, surrounding amino-acids that are present within Ex14 (but not Ex14-Tr) are necessary to super-shift filaments and confer protection from BRC4-mediated disruption.
as §2

RAD51-ssDNA filaments = experiment: EMSA, protection of RAD51-ssDNA filaments from BRC4-mediated disruption (random sequence ssDNA); format: biochemical; details: 100-nt random ssDNA; 10-fold excess of Ex27
Experimental: as §2

RAD51;BRCA2 Ex27 = RAD51;BRCA2 Ex27 (Homo sapiens?;Homo sapiens?, UniProt Q06609;P51587 1-339;3270-3315, |); experiment: EMSA, BRC4 protection; 10-fold excess Ex27 + BRC4, complete protection; largely protected at 33 µM Ex27; DMC1: 25 mM TEA (triethanolamine) pH 7.5, 200 mM KCl, 1 mM ATP, 2 mM MgCl2, 0.1 mg/ml BSA, 2 mM DTT, or 50 mM TAE pH 7.5, 2 mM ATP, 2 mM MgCl2, 2 mM DTT; RAD51: 50 mM TEA, 2 mM ATP, 0.5 mM MgCl2, 2 mM DTT; all 4 C, agarose gel in 0.5x TAE; details: tags: ;; label: none (SYBR Gold post-stain); single strand
[9] = molecular target: the molecule itself; experiment: SEC-MALS; Superdex 200 Increase 10/300 GL, 20 mM Tris pH 8.0, 150 mM KCl, 2 mM DTT; the loop mutant also by SEC-SAXS
[10] = molecular target: the molecule itself; experiment: crystal structure; DMC1 ΔN crystals soaked overnight with 3.5 mM BRCA2 Ex14-Tr peptide; anisotropic resolution limits 3.4-5.8 Å; peptide built with the guide of an AlphaFold2 model

Molecule: BRCA2 Ex27 peptide (amino acids 3270-3315) (from UniProt P51587 3270-3315)
- Kd [1]: > 96 µM

Molecule: Ex14-AAA: Ex14 with alanine mutations F2406A, P2408A, P2409A (ATRNEKMRHLITTGRPTKVAVAAFKTKSHFHRVE; left off: His6, end not stated, cleaved | MBP, end not stated, cleaved)
- super-shift of pre-formed DMC1-ssDNA filaments (DMC1-ssDNA filaments [2]): largely failed to stimulate or super-shift; also recorded: largely eliminated
- binding in pull-down (DMC1 ΔN [3]): not
- stimulation of DMC1-ssDNA nucleoprotein filament formation (DMC1-ssDNA filaments [4]; TAE pH 7.5, 100-nt random ssDNA, 4 °C, canonical ratio of three nucleotides to one protomer, equimolar for Ex14): largely failed to stimulate filament formation
- stimulation of DMC1-ssDNA filament formation at high concentrations (DMC1-ssDNA filaments [4]; high peptide concentrations): partial stimulation; also recorded: some stimulation of filament formation
- interaction by MST (in words) (DMC1 ΔN [5]; pH 8.0): largely disrupted; also recorded: not detectable
- protection of RAD51-ssDNA (polydT) filaments from BRC4-mediated disruption [6]: not
- super-shift of DMC1 V179E-ssDNA filaments [7]: The residual super-shift was the same
- protection of DMC1-ssDNA filaments from BRC4-mediated disruption (DMC1-ssDNA filaments [8]): almost completely lost; also recorded: largely abrogated
- protection of RAD51-ssDNA filaments from BRC4-mediated disruption (RAD51-ssDNA filaments): not

Molecule: RPTKVFVPPFKTKS [Ex14-Tr]
- Kd (DMC1 ΔN [5]; MST from initial fluorescence, 10 mM HEPES pH 8.0, 150 mM NaCl, 0.05 % Tween-20, ~22 °C, mean, n = 3 independent experiments): 35.7 µM

B1: 100-nt poly(dT) (ssDNA)
DNA: TTTTTTTTTTTTTTTTTTTTTTTTTTTTTTTTTTTTTTTTTTTTTTTTTTTTTTTTTTTTTTTTTTTTTTTTTTTTTTTTTTTTTTTTTTTTTTTTTTTT
- binding result (RAD51;BRCA2 Ex27): binds

B2: BRCA2 Ex14 (amino acids 2387-2420), purified (peptide, UniProt P51587 2387-2420, looked up)
chain: ATRNEKMRHLITTGRPTKVFVPPFKTKSHFHRVE
notes: human BRCA2 exon 14 PhePP region, amino acids 2387-2420; source: E. coli BL21 (DE3), purified (Ni-NTA, HiTrap Q, TEV cleavage, HiTrap SP, SEC)
- Kd ([1]; both partners purified): ~30 µM

B3: DMC1 ΔN loop mutant, purified (domain or fragment, human, UniProt Q14565 83-340, looked up)
chain: PGFLTAFEYSEKRKMVFHITTGSQEFDKLLGGGIESMAITEAFGEFRTGKTQLSHTLCVTAQLPIDRGGGEGKIIFIDTENTFRPDRLRDIADRFGLSGSDVLDNVLYARAYTSEHQMELLDYVAAKFHEEAGIFKLLIIDSIMALFRVDFSGRGELAERQQKLAQMLSRLQKISEEYNVAVFVTNQMTADPGATMTFQADPKKPIGGHILAHASTTRISLRKGRGELRIAKIYDSPEMPENEATFAITAGGIGDAKE
modifications: amine reactive fluorescent dye (Monolith Protein Labelling Kit BLUE-NHS) in the MST only
notes: The purification of the mutant is not described; probably as for DMC1 ΔN (His6 tag cleaved)
- stoichiometry N [9]: 8

Molecule: B4
- stoichiometry N [10]: 8

B5: His-DMC1 ΔN V179E mutant (domain or fragment, human, UniProt Q14565 83-340, looked up)
chain: PGFLTAFEYSEKRKMVFHITTGSQEFDKLLGGGIESMAITEAFGEFRTGKTQLSHTLCVTAQLPGAGGYPGGKIIFIDTENTFRPDRLRDIADRFNEDHDAVLDNVLYARAYTSEHQMELLDYVAAKFHEEAGIFKLLIIDSIMALFRVDFSGRGELAERQQKLAQMLSRLQKISEEYNVAVFVTNQMTADPGATMTFQADPKKPIGGHILAHASTTRISLRKGRGELRIAKIYDSPEMPENEATFAITAGGIGDAKE
notes: human DMC1 ΔN (83-340) with V179E, cloned into pHAT4; His tag named on the protein in the pull-down; also called His6-DMC1 mutant; source: E. coli, in lysate (pull-down); purified for SEC-MALS (purification not described)
- stoichiometry N [9]: 8

B6: BRCA2 Ex14-Tr peptide (amino acids 2401-2414) (peptide)
peptide: RPTKVFVPPFKTKS
notes: human BRCA2 Ex14 truncated, amino acids 2401-2414; also called truncated Ex14; source: synthetic peptide (Severn Biotech)
- Kd ([1]; both partners purified): 36 µM
